Test results: publication PMC5100913 (PLoS ONE, 2016)

Biological target: T1, Aha1 (yeast, UniProt Q12449 1-350)
T1 sequence (looked up): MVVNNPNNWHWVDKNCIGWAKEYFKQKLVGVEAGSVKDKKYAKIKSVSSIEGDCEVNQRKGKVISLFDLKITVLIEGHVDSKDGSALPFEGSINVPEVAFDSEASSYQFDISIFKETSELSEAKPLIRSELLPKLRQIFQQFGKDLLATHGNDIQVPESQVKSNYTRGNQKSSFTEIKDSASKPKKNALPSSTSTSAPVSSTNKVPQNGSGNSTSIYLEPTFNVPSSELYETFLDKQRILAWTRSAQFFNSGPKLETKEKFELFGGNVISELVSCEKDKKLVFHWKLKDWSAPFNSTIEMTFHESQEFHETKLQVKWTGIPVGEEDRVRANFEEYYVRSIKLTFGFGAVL
Test: cell-based or functional assay

B1: yeast Hsp90 (natural protein)
chain: not shown
- stimulation of the chaperone's ATPase activity by Aha1 (NADH coupled enzymatic assay, hsp90:Aha1 1:2): 10 fold
